In patent US11066482B2, “Specific plasmin inactivation by anticatalytic antibody” (priority 2017, dated 2021):

Experiments:
fibrinolytic bleeding = assay: Fibrinolytic bleeding assay in vivo (humanized tail bleeding model); design: species or system mice; conditions: Pi 100 nmole/kg intravenously, mice given human plasminogen and plasminogen activator
Protocol: Anesthetized mice were treated in a randomized, blinded fashion with saline (Control), Pi (100 nmole/kg) or EACA (510 micromole/kg) intravenously. Human plasminogen (100 nmole/kg) and plasminogen activator (80,000 IU/kg) were given over 60 min. Tail bleeding was initiated 40 min. after the infusion. Tails were pre-warmed for 5 mins in 3 mL of 37° C. saline and bleeding was monitored as described.36,37 N=5-6, Means±SE are shown. *p<0.05, **p<0.01; ns, not significant. Kruskal Wallis one way ANOVA, Dunn's corrections.
Fibrinolytic bleeding assays in vivo. Anesthetized mice were treated in a randomized, blinded fashion with saline (Control), Pi (100 nmole/kg) or EACA (510 micromole/kg). Human plasminogen (100 nmole/kg) and plasminogen activator (80,000 IU/kg) were given over 60 min. Tail bleeding started 40 min. after the infusion. Tails were pre-warmed for 5 mins in 3 mL of 37° C. saline as described.(27, 28).
Suppression of fibrinolytic bleeding in vivo. The potential utility of the Pi for suppression of fibrinolytic bleeding was examined in vivo in randomized, blinded studies of surgical arterial and venous hemorrhage.

human plasma clots = assay: Clot lysis assay of Pi IgG, Fab and chimeric Fab, urokinase; format: biochemical; conditions: 25 nM-400 nM, 30 min
Protocol: FIGS. 4A-4D show comparative inhibition of factor V cleavage and human clot fibrinolysis (dissolution) by Pi, EACA and a2AP. […] The relative migration of molecular weight standards is shown (kDa). […] Human plasma was clotted with CaCl2 (10 mM) and thrombin (1 U/ml) in the presence of trace amounts of 1251 fibrinogen for 1 h at 37 deg. C. After washing in 1 ml of TBS pH 7.4, tPA (5 nM) was added in the presence of various amounts of Pi (62.5 to 1000 nM), EACA (0.125 mM to 2 mM) or no inhibitor. After 2.5 h the amount of fibrinolysis was determined by measuring the amount of 125I-fibrin dissolved in the supernatant. Means of duplicate observations are shown. […] Clots were formed as above in the presence of human plasminogen (2 uM) and a2AP (1 uM) or Pi (1 uM) and various amounts of tPA (0-10 nM). Clot dissolution was monitored in duplicate over 2 h in microtiter plate wells at A405 nm. […] The amount of clot lysis was determined as described in Methods.
The effects of Pi IgG, Fab or chimeric Fab were also compared in a clot lysis assay in microtiter plates. […] C. was monitored at 405 nm. The percent clot dissolution at 30 min. was determined as the percent change in peak turbidity from baseline=100%×(peak absorbance−30 min. absorbance)/(peak absorbance−baseline absorbance).

[1] = molecular target: T1, plasmin activity in dog plasma (Canis lupus familiaris, UniProt P80009); assay: Plasmin activity in plasma after urokinase, S2251; format: biochemical; conditions: Pi 1 uM
T1 construct: from tissue; host or cells: dog plasma
T1 sequence (P80009 with tags, fused parts or gaps): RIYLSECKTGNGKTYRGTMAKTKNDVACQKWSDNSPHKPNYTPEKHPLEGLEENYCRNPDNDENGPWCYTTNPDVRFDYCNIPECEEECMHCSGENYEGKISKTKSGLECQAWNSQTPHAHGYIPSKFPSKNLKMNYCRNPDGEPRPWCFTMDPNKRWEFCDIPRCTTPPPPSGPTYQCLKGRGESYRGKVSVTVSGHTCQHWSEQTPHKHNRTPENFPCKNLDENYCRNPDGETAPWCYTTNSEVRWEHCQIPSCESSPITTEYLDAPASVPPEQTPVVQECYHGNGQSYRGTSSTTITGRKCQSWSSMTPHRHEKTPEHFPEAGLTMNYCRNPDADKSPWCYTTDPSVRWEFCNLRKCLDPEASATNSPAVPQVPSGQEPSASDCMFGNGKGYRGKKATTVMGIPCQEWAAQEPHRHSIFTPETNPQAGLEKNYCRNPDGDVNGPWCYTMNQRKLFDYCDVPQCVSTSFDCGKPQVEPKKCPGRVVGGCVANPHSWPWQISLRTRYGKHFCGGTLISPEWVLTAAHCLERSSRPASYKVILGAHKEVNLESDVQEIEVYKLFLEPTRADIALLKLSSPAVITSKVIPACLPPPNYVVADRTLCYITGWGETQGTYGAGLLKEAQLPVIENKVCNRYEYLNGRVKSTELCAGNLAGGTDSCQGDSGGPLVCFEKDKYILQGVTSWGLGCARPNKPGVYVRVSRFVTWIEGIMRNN
Protocol: (§1) FIGS. 3A-3D show binding and inhibitory specificity of Pi. […] The effect of various concentrations of Pi (0-2000 nM) on clots formed with human, baboon or African green monkey plasmas. Clot lysis was measured in microtiter plates after addition of urokinase as described in Methods.
(§2) Specificity of plasmin inhibition. The effect of the Pi on different animal plasmins was examined after addition of the plasminogen activator urokinase. Various animal plasmas (5 ul) were mixed in microtiter plates in the presence of Pi (1 uM, 10 ul) or buffer, S2251 (10 ul, 0.5 mM final), urokinase (100 or 200 U) in a total volume of 100 ul with PBS. The plates were incubated at 37 deg. C. and the rate of plasmin generation was monitored by substrate cleavage at 405 nm for 1 hr.

[2] = test system: plasmin activity in rabbit plasma; assay: Plasmin activity in plasma after urokinase, S2251; format: biochemical; conditions: Pi 1 uM
Protocol: as §1, §2

[3] = test system: plasmin activity in hamster plasma; assay: Plasmin activity in plasma after urokinase, S2251; format: biochemical; conditions: Pi 1 uM
Protocol: as §1, §2

[4] = molecular target: T2, plasmin activity in rat plasma (Rattus norvegicus, UniProt Q01177); assay: Plasmin activity in plasma after urokinase, S2251; format: biochemical; conditions: Pi 1 uM
T2 construct: from tissue; host or cells: rat plasma
T2 sequence (Q01177 97-581 limits assumed): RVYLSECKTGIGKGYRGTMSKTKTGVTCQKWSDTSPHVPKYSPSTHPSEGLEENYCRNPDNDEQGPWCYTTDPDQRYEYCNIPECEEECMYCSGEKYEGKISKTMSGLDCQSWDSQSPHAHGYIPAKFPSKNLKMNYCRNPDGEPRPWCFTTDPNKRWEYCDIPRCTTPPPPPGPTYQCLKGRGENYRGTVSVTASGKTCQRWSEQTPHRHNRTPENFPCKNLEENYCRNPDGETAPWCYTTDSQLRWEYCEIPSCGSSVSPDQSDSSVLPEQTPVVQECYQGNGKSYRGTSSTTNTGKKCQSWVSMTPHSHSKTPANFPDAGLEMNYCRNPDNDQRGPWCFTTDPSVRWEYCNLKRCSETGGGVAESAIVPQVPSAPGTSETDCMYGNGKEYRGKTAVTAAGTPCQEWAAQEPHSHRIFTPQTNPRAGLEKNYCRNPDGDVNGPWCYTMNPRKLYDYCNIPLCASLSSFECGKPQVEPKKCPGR
T2 sequence (Q01177 582-812 limits assumed): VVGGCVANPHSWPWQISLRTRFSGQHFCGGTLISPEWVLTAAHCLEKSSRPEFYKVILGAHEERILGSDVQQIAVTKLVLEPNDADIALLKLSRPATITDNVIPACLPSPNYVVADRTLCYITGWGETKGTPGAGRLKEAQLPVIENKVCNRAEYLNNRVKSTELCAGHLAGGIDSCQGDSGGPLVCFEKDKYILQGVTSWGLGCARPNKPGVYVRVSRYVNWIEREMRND
Protocol: as §1, §2

[5] = molecular target: T3, plasmin activity in bovine plasma (Bos taurus, UniProt P06868); assay: Plasmin activity in plasma after urokinase, S2251; format: biochemical; conditions: Pi 1 uM
T3 construct: from tissue; host or cells: bovine plasma
T3 sequence (P06868 104-583 limits assumed): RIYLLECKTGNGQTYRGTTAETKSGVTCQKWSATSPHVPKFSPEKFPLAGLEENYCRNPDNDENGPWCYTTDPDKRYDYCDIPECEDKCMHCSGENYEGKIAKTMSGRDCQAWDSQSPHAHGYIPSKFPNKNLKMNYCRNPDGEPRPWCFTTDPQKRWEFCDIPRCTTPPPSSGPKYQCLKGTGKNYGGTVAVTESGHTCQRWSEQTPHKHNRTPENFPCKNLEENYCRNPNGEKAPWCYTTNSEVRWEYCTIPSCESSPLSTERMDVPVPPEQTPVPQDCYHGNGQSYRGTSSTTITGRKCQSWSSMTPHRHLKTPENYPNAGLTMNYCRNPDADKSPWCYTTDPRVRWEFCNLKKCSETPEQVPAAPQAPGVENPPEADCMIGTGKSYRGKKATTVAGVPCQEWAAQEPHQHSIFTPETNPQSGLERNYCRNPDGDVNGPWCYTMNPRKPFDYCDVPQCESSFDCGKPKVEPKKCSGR
T3 sequence (P06868 584-812 limits assumed): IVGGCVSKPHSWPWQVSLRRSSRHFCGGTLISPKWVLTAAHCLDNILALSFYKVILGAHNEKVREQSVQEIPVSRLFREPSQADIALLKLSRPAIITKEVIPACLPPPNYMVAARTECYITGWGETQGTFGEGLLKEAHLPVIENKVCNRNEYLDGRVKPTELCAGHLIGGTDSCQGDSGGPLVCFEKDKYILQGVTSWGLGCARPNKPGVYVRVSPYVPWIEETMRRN
Protocol: as §1, §2

[6] = test system: plasmin activity in gerbil plasma; assay: Plasmin activity in plasma after urokinase, S2251; format: biochemical; conditions: Pi 1 uM
Protocol: as §1, §2

plasmin in human plasma = molecular target: T4, plasmin in human plasma (Homo sapiens, UniProt P00747); assay: Plasmin activity in plasma after urokinase, S2251; format: biochemical; conditions: Pi 1 uM
T4 construct: from tissue; host or cells: human plasma
T4 sequence (P00747 97-580 limits assumed): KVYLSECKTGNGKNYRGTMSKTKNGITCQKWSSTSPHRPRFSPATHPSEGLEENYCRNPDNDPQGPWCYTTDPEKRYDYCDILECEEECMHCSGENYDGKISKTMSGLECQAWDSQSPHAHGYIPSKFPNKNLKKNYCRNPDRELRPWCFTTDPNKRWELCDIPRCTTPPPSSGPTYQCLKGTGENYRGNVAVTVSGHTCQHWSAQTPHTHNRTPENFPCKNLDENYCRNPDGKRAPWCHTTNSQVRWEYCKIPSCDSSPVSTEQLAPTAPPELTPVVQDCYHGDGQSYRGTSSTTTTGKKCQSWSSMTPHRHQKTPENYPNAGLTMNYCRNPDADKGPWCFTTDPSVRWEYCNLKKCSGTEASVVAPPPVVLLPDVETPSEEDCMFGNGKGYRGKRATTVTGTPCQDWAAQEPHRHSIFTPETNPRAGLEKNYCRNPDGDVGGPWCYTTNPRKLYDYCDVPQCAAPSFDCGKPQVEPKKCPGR
T4 sequence (P00747 581-810 limits assumed): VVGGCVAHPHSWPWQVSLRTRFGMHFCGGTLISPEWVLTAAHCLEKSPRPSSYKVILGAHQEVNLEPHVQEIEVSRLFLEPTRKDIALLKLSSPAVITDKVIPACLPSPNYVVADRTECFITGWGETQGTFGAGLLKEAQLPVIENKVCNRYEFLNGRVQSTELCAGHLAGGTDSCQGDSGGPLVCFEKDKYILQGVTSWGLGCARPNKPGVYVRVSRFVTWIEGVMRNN
Protocol: as §1, §2

[7] = test system: plasmin activity in cat plasma; assay: Plasmin activity in plasma after urokinase, S2251; format: biochemical; conditions: Pi 1 uM
Protocol: as §1, §2

[8] = test system: plasmin activity in guinea pig plasma; assay: Plasmin activity in plasma after urokinase, S2251; format: biochemical; conditions: Pi 1 uM
Protocol: as §1, §2

[9] = molecular target: T5, plasmin activity in pig plasma (Sus scrofa, UniProt P06867); assay: Plasmin activity in plasma after urokinase, S2251; format: biochemical; conditions: Pi 1 uM
T5 construct: from tissue; host or cells: pig plasma
T5 sequence (P06867 97-579 limits assumed): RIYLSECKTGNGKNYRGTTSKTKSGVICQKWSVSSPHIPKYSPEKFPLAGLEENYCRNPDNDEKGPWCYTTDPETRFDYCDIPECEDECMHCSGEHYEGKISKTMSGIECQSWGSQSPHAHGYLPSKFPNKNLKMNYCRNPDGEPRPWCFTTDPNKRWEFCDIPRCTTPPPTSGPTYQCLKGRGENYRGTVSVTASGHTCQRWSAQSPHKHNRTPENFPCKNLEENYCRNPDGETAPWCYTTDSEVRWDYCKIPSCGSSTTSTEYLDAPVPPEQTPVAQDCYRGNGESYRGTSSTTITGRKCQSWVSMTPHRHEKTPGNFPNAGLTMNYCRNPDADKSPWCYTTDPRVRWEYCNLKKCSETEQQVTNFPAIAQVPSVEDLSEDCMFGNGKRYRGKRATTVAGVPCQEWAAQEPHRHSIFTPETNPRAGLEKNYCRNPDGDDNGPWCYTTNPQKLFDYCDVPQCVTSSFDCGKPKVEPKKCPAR
T5 sequence (P06867 580-809 limits assumed): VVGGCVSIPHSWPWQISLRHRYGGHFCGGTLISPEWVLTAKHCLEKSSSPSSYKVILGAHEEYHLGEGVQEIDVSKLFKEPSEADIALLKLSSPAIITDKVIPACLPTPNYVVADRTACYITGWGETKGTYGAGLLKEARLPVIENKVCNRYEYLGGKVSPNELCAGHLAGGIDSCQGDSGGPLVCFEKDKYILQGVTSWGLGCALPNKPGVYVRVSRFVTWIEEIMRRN
Protocol: as §1, §2

[10] = molecular target: protease domain of reduced human plasmin (Homo sapiens, UniProt P00747); assay: Immunoblotting of reduced human plasmin; format: binding
protease domain of reduced human plasmin, sequence (P00747 581-810 limits assumed): as the sequence (P00747 581-810 limits assumed) above
Protocol: FIGS. 1A-1D show binding specificity and avidity of Pi for human plasmin. […] Relative migration of molecular standards (kDa) is shown. […] Wells of a microtiter plate were coated with native (wild-type, WT) or various microplasmin loop mutants (5 ug/ml). After blocking, Pi, a polyclonal rabbit anti-plasmin (plasmin Ab) or a non-reactive mouse (anti-digoxin, control) antibody (1 ug/ml) were added to wells. The bound antibodies (Pi, control) were detected by a secondary anti-mouse peroxidase (1:10,000) and the plasmin antibodies were detected by anti-rabbit peroxidase antibody (1:5,000) followed by TMB substrate with monitoring at A405. […] Wells of microtiter plate were coated with human plasminogen (2 ug/ml). After blocking and washing, various concentrations of purified Pi (shown) were added for 1 h. After washing the amount of antibody bound was detected by a secondary anti-mouse antibody followed by TMB substrate with monitoring at A405 nm. Data shown the means±SE of triplicate observations, experiments repeated at least twice. The data were analyzed with Graphpad Prism, r=0.95.

B1: Pi: mouse monoclonal antibody plasmin inhibitor binding plasmin protease domain loops 4 and 5; LC SEQ ID NO:1, HC SEQ ID NO:4 (antibody)
heavy: EVKLLESGGGLVQPGGSLKLSCAASGFDFSRYWMSWVRQAPGKGLEWIGEINPDSSTINYTPSLKDKFIISRDNAKNSLYLQMSKVRSEDTALYYCASYCGYSYDALDCWGQGTSVTVSSAKTTPPSVYPLAPGSAAQTNSMVTLGCLVKGYFPEPVTVTWNSGSLSSGVHTFPAVLQSDLYTLSSSVTVPSSTWPSETVTCNVAHPASSTKVDKKIVPRDCGCKPCICTVPEVSSVFIFPPKPKDVLTITLTPKVTCVVVDISKDDPEVQFSWFVDDVEVHTAQTQPREEQFNSTFRSVSELPIMHQDWLNGKEFKCRVNSVAFPAPIEKTISKTKGRPKAPQVYTIPPPKEQMAKDKVSLTCMITDFFPEDITVEWQWNGQPAENYKNTQPIMDTDGSYFVYGKLNVQKSNWEAGNTFTCSVLHEGLHNHHTEKSLSHSPGK
light: DIQMTQSPSSLSASLGGKVSITCKASQDINKYISWYQHKPGKGPRLLIHYTSTLQPGIPSRFSGSGSGRDYSFSISNLEPEDIATYYCLQYDNLYTFGGGTKLEIKRADAAPTVSIFPPSSEQLTSGGASVVCFLNNFYPKDINVKWKIDGSERQNGVLNSWTDQDSKDSTYSMSSTLTLTKDEYERHNSYTCEATHKTSTSPIVKSFNWNEC
- suppression of bleeding time vs controls (fibrinolytic bleeding): > 80%
- suppression of blood loss vs controls (fibrinolytic bleeding): > 85%
- inhibition of clot lysis by Pi molecular forms (human plasma clots): effectively inhibited clot lysis
- effect on plasmin activity generated by urokinase [1]: did not inhibit plasmin activity
- effect on plasmin activity generated by urokinase [2]: did not inhibit plasmin activity
- effect on plasmin activity generated by urokinase [3]: did not inhibit plasmin activity
- effect on plasmin activity generated by urokinase [4]: did not inhibit plasmin activity
- effect on plasmin activity generated by urokinase [5]: did not inhibit plasmin activity
- effect on plasmin activity generated by urokinase [6]: did not inhibit plasmin activity
- effect on plasmin activity generated by urokinase (plasmin in human plasma): suppressed plasmin
- effect on plasmin activity generated by urokinase [7]: did not inhibit plasmin activity
- effect on plasmin activity generated by urokinase [8]: did not inhibit plasmin activity
- effect on plasmin activity generated by urokinase [9]: did not inhibit plasmin activity
- binding by immunoblotting [10]: bound specifically to the protease domain of plasmin
